The chains are these.
B1: S100A13 (natural protein)
chain: MAAEPLTELEESIETVVTTFFTFARQEGRKDSLSVNEFKELVTQQLPHLLKDVGSLDEKMKSLDVNQDSELKFNEYWRLIGELAKEIRKKKDLKIRKK
B2: S100A14 (natural protein)
chain: MGQCRSANAEDAQEFSDVERAIETLIKNFHQYSVEGGKETLTPSELRDLVTQQLPHLMPSNCGLEEKIANLGSCNDSKLEFRSFWELIGEAAKSVKLERPVRGH
B3: S100Z (natural protein)
chain: MPTQLEMAMDTMIRIFHRYSGKERKRFKLSKGELKLLLQRELTEFLSCQKETQLVDKIVQDLDANKDNEVDFNEFVVMVAALTVACNDYFVEQLKKKGK
B4: S100A12 (natural protein)
chain: MTKLEEHLEGIVNIFHQYSVRKGHFDTLSKGELKQLLTKELANTIKNIKDKAVIDEIFQGLDANQDEQVDFQEFISLVAIALKAAHYHTHKE
B5: S100P (natural protein)
chain: MTELETAMGMIIDVFSRYSGSEGSTQTLTKGELKVLMEKELPGFLQSGKDKDAVDKLLKDLDANGDAQVDFSEFIVFVAAITSACHKYFEKAGLK
B6: S100A16 (natural protein)
chain: MSDCYTELEKAVIVLVENFYKYVSKYSLVKNKISKSSFREMLQKELNHMLSDTGNRKAADKLIQNLDANHDGRISFDEYWTLIGGITGPIAKLIHEQEQQSSS
B7: S100A3 (natural protein)
chain: MARPLEQAVAAIVCTFQEYAGRCGDKYKLCQAELKELLQKELATWTPTEFRECDYNKFMSVLDTNKDCEVDFVEYVRSLACLCLYCHEYFKDCPSEPPCSQ
B8: S100B (natural protein)
chain: MSELEKAMVALIDVFHQYSGREGDKHKLKKSELKELINNELSHFLEEIKEQEVVDKVMETLDNDGDGECDFQEFMAFVAMVTTACHEFFEHE
B9: S100G (natural protein)
chain: MSTKKSPEELKRIFEKYAAKEGDPDQLSKDELKLLIQAEFPSLLKGPNTLDDLFQELDKNGDGEVSFEEFQVLVKKISQ
B10: S100A5 (natural protein)
chain: METPLEKALTTMVTTFHKYSGREGSKLTLSRKELKELIKKELCLGEMKESSIDDLMKSLDKNSDQEIDFKEYSVFLTMLCMAYNDFFLEDNK
B11: S100A11 (natural protein)
chain: MAKISSPTETERCIESLIAVFQKYAGKDGYNYTLSKTEFLSFMNTELAAFTKNQKDPGVLDRMMKKLDTNSDGQLDFSEFLNLIGGLAMACHDSFLKAVPSQKRT

The source of these data is publication PMC8991199, “Promiscuity mapping of the S100 protein family using a high-throughput holdup assay” (Scientific Reports, 2022).

The first assay deals with fTI, fluorescently labelled H14 foldamer TI. The assay can be described thus: fluorescence polarisation; direct FP: S100 protein diluted in 50 nM labeled foldamer, 20 mM HEPES pH 7.5, 150 mM NaCl, 1 mM CaCl2, 0.5 mM TCEP, 0.01% Tween20; quadratic fit (ProFit); detection threshold Kd 1 mM. (In general: In fluorescence polarisation assays a small probe gives low polarisation when free and higher when bound to something large.)
Broadly, the Kd is the free concentration of one partner at which half of the binding sites on the other are occupied at equilibrium, for simple one-to-one binding. Low readings indicate higher affinity, high ones lower affinity. The molecule B1 gave a Kd of over 1 mM.

Molecule B2 registered a Kd of over 1 mM.

B3 yielded a Kd of over 1 mM.

In the case of B4, the Kd was over 1 mM.

For the molecule B5, the Kd was over 1 mM.

In the case of B6, the Kd is over 1 mM.

On to B7, for which the Kd was over 1 mM.

B8 gave a Kd of over 1 mM.

Regarding B9, the Kd is over 1 mM.

B10 showed a Kd of 0.27 mM.

In turn, B11 gave a dissociation constant (Kd) of over 1 mM.

The target in another assay is fWL, fluorescently labelled H14 foldamer WL. The assay is described as above.
Regarding B1, the Kd was over 1 mM.

For B2, the dissociation constant Kd is over 1 mM.

In the case of B3, the Kd was over 1 mM.

Turning to B4, the Kd worked out at 0.25 mM.

The molecule B5 returned an equilibrium dissociation constant (Kd) of 0.075 mM. Compared with the last molecule, the Kd is about 3.3-fold lower.

Regarding B6, the Kd stood at 0.3 mM.

Molecule B7 had a Kd of over 1 mM.

The molecule B8 showed a Kd of 0.011 mM.

On to B9, for which the Kd is over 1 mM.

In turn, B10 gave an equilibrium dissociation constant (Kd) of 0.014 mM.

Take B11: the Kd was over 1 mM.

A further assay concerns the target fIL, fluorescently labelled H14 foldamer IL. Described as above.
B1 yielded a Kd of over 1 mM.

B2 showed a Kd of over 1 mM.

Molecule B3 showed a Kd of over 1 mM.

B4 showed a Kd of over 1 mM.

Take B5: the Kd was 0.33 mM.

Molecule B6 showed a Kd of over 1 mM.

B7 displayed a Kd of over 1 mM.

B8 gave a Kd of 0.063 mM.

The molecule B9 showed a Kd of over 1 mM.

As to B10, the Kd came out at 0.075 mM. That is a double-digit micromolar value.

As for B11, the Kd is over 1 mM.

The target of a further assay is fVL, fluorescently labelled H14 foldamer VL. The description is as above.
With B1, the Kd is over 1 mM.

With B2, the Kd was over 1 mM.

As for B3, the Kd is over 1 mM.

B4 returned a Kd of over 1 mM.

B5 yielded a Kd of over 1 mM.

For B6, the Kd was over 1 mM.

Take B7: the Kd was over 1 mM.

Consider B8, for which the Kd came to 0.05 mM. This counts as double-digit micromolar.

As to B9, the equilibrium dissociation constant (Kd) is over 1 mM.

As for B10, the Kd came out at 0.11 mM.

Molecule B11 had a Kd of over 1 mM.

A further assay concerns the target fTW, fluorescently labelled H14 foldamer TW. The description is as above.
For the molecule B1, the Kd was over 1 mM.

The molecule B2 had a Kd of over 1 mM.

With B3, the equilibrium dissociation constant (Kd) came to 0.52 mM.

For B4, the Kd is over 1 mM.

Take B5: the Kd came to 0.17 mM.

B6 gave a Kd of over 1 mM.

As to B7, the dissociation constant Kd was over 1 mM.

B8 returned a Kd of 0.28 mM.

Turning to B9, the Kd was over 1 mM.

In the case of B10, the Kd came out at 0.062 mM.

Turning to B11, the Kd stood at 0.57 mM.

Another assay concerns the target fRF, fluorescently labelled H14 foldamer RF. The description is as above.
For B1, the Kd was over 1 mM.

In turn, B2 had a dissociation constant (Kd) of over 1 mM.

The molecule B3 showed a Kd of 0.89 mM.

The molecule B4 yielded a Kd of over 1 mM.

In turn, B5 had an equilibrium dissociation constant (Kd) of 0.19 mM.

On to B6, for which the Kd was over 1 mM.

For the molecule B7, the Kd is over 1 mM.

The molecule B8 gave a Kd of 0.23 mM.

Consider B9, for which the Kd is over 1 mM.

B10 had a Kd of 0.046 mM. This lies in the double-digit micromolar range.

B11 came in with a Kd of 1 mM.

In another assay the target is fYF, fluorescently labelled H14 foldamer YF. Described as above.
The molecule B1 yielded an equilibrium dissociation constant (Kd) of over 1 mM.

Turning to B2, the Kd is over 1 mM.

For B3, the Kd is over 1 mM.

The molecule B4 yielded a Kd of over 1 mM.

As for B5, the Kd is 0.079 mM.

With B6, the Kd is over 1 mM.

Take B7: the Kd was over 1 mM.

Molecule B8 displayed an equilibrium dissociation constant (Kd) of 0.028 mM.

In the case of B9, the Kd was over 1 mM.

In the case of B10, the dissociation constant Kd was 0.032 mM.

With B11, the Kd was over 1 mM.

The next assay deals with fRR, fluorescently labelled H14 foldamer RR. Described as above.
B1 yielded a Kd of over 1 mM.

As to B2, the Kd was over 1 mM.

B3 had a Kd of over 1 mM.

On to B4, for which the Kd was over 1 mM.

For B5, the Kd is over 1 mM.

B6 registered a Kd of over 1 mM.

The molecule B7 gave a Kd of over 1 mM.

With B8, the Kd was 0.21 mM.

B9 showed a Kd of over 1 mM.

Molecule B10 gave a Kd of 0.045 mM.

B11 showed a Kd of over 1 mM.

The target of the next assay is fIF, fluorescently labelled H14 foldamer IF. The assay is described as above.
B1 came in with a Kd of over 1 mM.

Molecule B2 registered a Kd of over 1 mM.

With B3, the Kd was 0.48 mM.

The molecule B4 registered a Kd of 0.59 mM.

B5 had a Kd of 0.14 mM.

Molecule B6 gave a dissociation constant Kd of over 1 mM.

B7: the Kd is 0.18 mM.

For B8, the Kd worked out at 0.14 mM.

Consider B9, for which the Kd is over 1 mM.

B10 gave a Kd of 0.027 mM.

For B11, the Kd is 0.28 mM.

For a further assay, the target named is fTM, fluorescently labelled H14 foldamer TM. The assay is described as above.
For B1, the Kd is over 1 mM.

B2 came in with a dissociation constant (Kd) of over 1 mM.

As to B3, the Kd is over 1 mM.

With B4, the Kd was over 1 mM.

In the case of B5, the Kd was over 1 mM.

B6: the Kd is over 1 mM.

B7: the Kd is over 1 mM.

B8 gave a Kd of over 1 mM.

The molecule B9 gave a Kd of over 1 mM.

Molecule B10 showed a Kd of 0.2 mM.

As for B11, the Kd was over 1 mM.

For another assay, the target named is fWW, fluorescently labelled H14 foldamer WW. The assay is described as above.
The molecule B1 registered an equilibrium dissociation constant (Kd) of over 1 mM.

In the case of B2, the Kd was over 1 mM.

Regarding B3, the Kd is over 1 mM.

As to B4, the Kd was over 1 mM.

In the case of B5, the Kd came out at 0.19 mM.

B6 showed a Kd of over 1 mM.

For the molecule B7, the Kd was 0.31 mM.

B8 had a Kd of over 1 mM.

B9 displayed a Kd of over 1 mM.

B10 returned a Kd of 0.077 mM.

Molecule B11 showed a Kd of over 1 mM.
